The RNAGym collection of RNA variant scans (doi:10.1073/pnas.2313332121)

B1: TPR t1 (parent)
chain: GACCAAUCUGCCCUCAGAGCUCGAGAACAUCUUCGGAUGCAGAGGAGGCAGGCUUCGGUGGCGCGAUAGCGCCAACGUCCUCAACCUCCAAUGCAUCCCACCACAUGAUGAUGCCUGAAGAGCCUUGGUUUUUUG

Variants of: B1
Assay: polymerase ribozyme fitness, log enrichment relative to wild type (log ratio); higher = more active; in vitro selection for triplet polymerase activity
Method in brief: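 Mutant libraries for each subunit of a heterodimeric triplet polymerase ribozyme were made by PCR and then transcribed. Each library underwent one round of in vitro selection in triplicate: annealing with a biotinylated primer, the partner subunit and triplets, frozen incubation at −7 °C, gel excision of extended constructs, streptavidin-bead capture and RT-PCR. Input and output libraries were Illumina-sequenced, and only genotypes with ≥10 input reads and ≥1 read per output were kept. Fitness is the logarithm, base 2, of genotype enrichment over wild-type enrichment, computed from inverse-variance-weighted replicate averages.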

Variant | polymerase ribozyme fitness (log ratio)
A90G A95G U133G | -0.0907
C85U U116A C123U U129A | -5.12
C89U C123U | 0.813
A91C G117C | -1.71
A91U G128A | -3.34
A83C G120A | 0.209
U87G G117A | -1.13
C88G C89A | -1.75
C82G C114U | -2.95
G93C C124U U125C | -1.05
C82G C123U | 0.314
C88U U106A C114G | -5.05
C88U A118U | 0.45
G93C G117A | -1.09
U92A U130G U131G | -5.8
G93C C101A C104U | -2.05
U92A A111G U129C U132C | -3.54
C82U C94U C114A | -2.17
C85A C124A U126G | -0.918
C89G U106A | -2.51
A91U U96A | -2.42
A83C C86G | -1.46
A84C U87A U96A | -1.65
C85A U96A | -2.43

Variant | polymerase ribozyme fitness (log ratio)
U92G A121G | -0.555
A84U A105C U116C | -5.74
G93A U132A G135U | -0.722
G93U C104A | -2.9
C89A A100U C115G | -5.22
C86U A119U | -0.189
U81G U125A | -3.53
C86A U112C | -0.51
U81G U125A U131G | -4.64
A84C U130C | -0.28
C88A C102A | -2.16
C82G C97A C124A U125G | -5.83
C82G U109G | -5.33
A84G G93U C101A | -3.07
C89A G110A | -3.58
C89A G110U | -3.66
C88A C99A U125G | -6.88
U87A C101U | 0.0521
C88G C124G | 1.77
C88G C124U | 0.871
A90U A103U U106C | -5.93
A84U C102U C123U | -1.1
A83U G128C | -2.32
C85G A108G | -3.15

Variant | polymerase ribozyme fitness (log ratio)
C86U G110A | -2.37
U87C A90G C94U | 0.339
A90U U96C C115U | -1.64
A90U A100C A119G | -2.07
C85G C114G | -3.82
U92A G113C | -3.49
U92A G113A | -2.8
G93U C101A G113U G117A | -6.98
C86G C89G C104U | -0.896
C82U G127A | -1.24
A84C C85U U87A C89G C124A | -5.8
U87A C99A C115G G122U C124G | -7.12
C85U C97A C115G | -5.83
C85U A95U C115A G120C | -0.474
A90U C97U C104A U109G C124A | -3.98
C88A U92A G113A | -3.73
A83G U109C | -5.77
G93A U116C | -1.68
C88A G120U | -0.146
C82G A83C C115G G122A | -2.67
C82G C115A C123A | -1.32
G93C G122A | -0.79
C89U A121G | -0.907
C89U U92G | -1.82

Variant | polymerase ribozyme fitness (log ratio)
C85A G128C | -4.07
A84G U109G | -5.8
C88A G110A | -1.49
G93A A95U C102A | -4.21
U92C G128C | -3.41
C82G C86U | -0.172
U87G A103C U106C C124G | -1.08
A84C G120U | 1.51
C86A C124A | 1.35
C88A G93C | -2.45
A91G U129A | -2.34
A84G C98U A100U | -4.01
A84C C94G U96C C124U | -0.869
U92C C101U C104U | -0.793
A84G U116G | -2.89
A91C U125A | -2.71
C82A C102A | -2.33
C85G U133G | -2.39
C88A G107A | -5.92
C89G G127A | -1.9
C89U G113U | -3.66
C85U U132A | -1.56
G93A C114G | -2.93
A90U U106A | -1.76

Variant | polymerase ribozyme fitness (log ratio)
A90U U106G | -4.63
C85G G113C C114A U132C | -6.29
C85G C123A | -0.897
C89G C104U A121U | 1.58
A90C C114U G128U | -4.34
C88G G117A | -2.35
C82A C94U | -0.596
C82A G117U | -0.792
C86A G120C | -0.326
C89U G110U A121G | -1.62
C89A A90G | -1.53
C82U A100C C123U | -0.0044
C86G U116A | -4.49
U92C | -0.847
U92A | -2.8
U92G | -2.38
U87A G120C U131G | 1.11
G93A C99U | -4.67
U81G U112G | -5.41
C85G U112G | -1.15
C85G U112C | 0.41
C88A C123U G127U U131G | -0.279
U87A C123G | 1.66
U81G G110A | -6.43

Variant | polymerase ribozyme fitness (log ratio)
C82G C101A C115A | -2.63
A91C U112A C123A G128C | -3.53
A90G G113U A118C | -4.53
U87C C115U | -0.297
A84U A90G C98G U109A A121U | -3.5
C86U C114A | -1.71
A83G G120U C124A G135A | 0.857
A90C C104U | -0.65
C82G U132A | -0.6
A90C U112A | -1.21
A90C U112G | -0.757
A90G U92G C123A | -1.06
C88G C97A C104U | -5.23
C82U G93C G117U | -2.53
C82A A118G A121G | 1.48
A83G C97A | -5.59
C88A C124A | 0.767
U87A G113C | -2.81
C88U G113U | -3.09
C88U G113C | -2.8
A84U U131G | -0.716
U87A A121G | 1.17
U87A A121C | 1.23
A84U C114A U131A | -0.993

Variant | polymerase ribozyme fitness (log ratio)
C82U U87A | -0.441
C82A G127A | -2.18
C85U C101A C104A | -3.57
C88A C104A A121U U130C | 0.158
C86U C94A U106G | -3.23
A90G U126A | -1.39
C88G C104U C123G | 1.53
A83U G93C C104U U116G G122A | -4.03
C88U U112A | 0.961
U81G G110U G128A | -6.9
C89A U112A | -1.53
C82G C94G | -2.14
G93U G135C | -0.696
A84G G127C | -2
C88A G117U | -2.84
C89U C97U | -0.579
C89U C97G | -5.4
A91C A103C | -7.08
A90U U106A A111U | -3.8
C82A U112A U131A | 1.09
G93U U133C | -1.17
C94A A105C | -4.8
C94A A105U | -3.27
